Data reported in patent US20260035432A1 (PRECIGEN, published 2026).
Blank lines part the entries; values can stand above or below the molecule they belong to.

Assays:
[1] = target: Signal peptide CD28, Stalk CD8α; assay: flow cytometry of T cells nucleofected with the CAR construct, Day 1, Protein L-biotin + SA-APC against CD3-FITC; the filing reports it as CAR surface expression (legend: the short CD8α stalk does not permit surface expression)
[2] = target: Signal peptide CD8α, Stalk CD8α; assay: as above
[3] = target: Signal peptide Ig Kappa, Stalk CD8α; assay: as above
[4] = target: Signal peptide mIgVH, Stalk CD8α; assay: as above
[5] = target: T1, Extracellular domain (ECD) of ROR1 fused to human Fc region (UniProt Q01973 30-406, limits assumed); assay: SPR, Biacore 3000; ROR1 ECD-human Fc on CM5 chip, antibody in solution
T1 construct: extracellular domain; also called ROR1-Fc; ROR1-FC; not shown: human Fc region
Description: Different concentrations of humanized antibodies were injected in solution phase and data was analyzed using BIAevaluation to calculate Kd of the antibodies.

[6] = target: T2, ROR1-His (UniProt Q01973 30-403, limits assumed); assay: ROR1-His affinity of the construct's binding domain; method not given
T2 construct: The construct is described nowhere; not shown: His tag

[7] = target: Extracellular domain (ECD) of ROR1 fused to human Fc region (UniProt Q01973); assay: ROR1-Fc affinity of the construct's binding domain; method not given
[8] = target: Extracellular domain (ECD) of ROR1 fused to human Fc region (UniProt Q01973); assay: SPR, Biacore 3000; ROR1 ECD-human Fc on CM5 chip, antibody in solution

Chain of Extracellular domain (ECD) of ROR1 fused to human Fc region (UniProt Q01973) (Q01973 30-406 limits assumed): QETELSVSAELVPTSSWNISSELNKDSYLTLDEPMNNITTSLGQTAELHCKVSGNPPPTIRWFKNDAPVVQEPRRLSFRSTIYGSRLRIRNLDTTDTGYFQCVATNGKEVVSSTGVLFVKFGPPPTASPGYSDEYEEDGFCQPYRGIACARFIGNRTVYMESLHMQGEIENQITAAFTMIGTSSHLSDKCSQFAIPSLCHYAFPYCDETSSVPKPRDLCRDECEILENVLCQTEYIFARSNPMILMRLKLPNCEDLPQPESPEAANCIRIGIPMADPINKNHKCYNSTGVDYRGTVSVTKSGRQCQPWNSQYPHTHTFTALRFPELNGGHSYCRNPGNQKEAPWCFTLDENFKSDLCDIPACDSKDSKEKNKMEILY
T1 sequence (Q01973 30-406 limits assumed): as above
T2 sequence (Q01973 30-403 limits assumed): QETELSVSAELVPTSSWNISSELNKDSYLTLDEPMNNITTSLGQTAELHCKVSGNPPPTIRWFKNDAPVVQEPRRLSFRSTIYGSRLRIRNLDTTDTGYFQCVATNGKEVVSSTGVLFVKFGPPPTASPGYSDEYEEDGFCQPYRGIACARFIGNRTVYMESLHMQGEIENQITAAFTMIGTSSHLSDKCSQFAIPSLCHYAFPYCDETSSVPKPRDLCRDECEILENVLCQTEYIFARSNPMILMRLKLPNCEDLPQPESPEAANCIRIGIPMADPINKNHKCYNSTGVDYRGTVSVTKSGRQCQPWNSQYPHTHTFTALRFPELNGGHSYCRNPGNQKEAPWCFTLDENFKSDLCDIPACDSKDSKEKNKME

fraction in quadrant Q6 (Protein L-biotin-SA-APC+, CD3-FITC+) [1]: 2.6 | fraction in quadrant Q6 (Protein L-biotin-SA-APC+, CD3-FITC+) [2]: 1.88 | fraction in quadrant Q6 (Protein L-biotin-SA-APC+, CD3-FITC+) [3]: 2.53 | fraction in quadrant Q6 (Protein L-biotin-SA-APC+, CD3-FITC+) [4]: 2.13
Molecule: Protein L-biotin

Kd [5]: 1.6 nM
B5: Hum ROR1_18VH_(G4S)3x_VL_16 (antibody, mouse IgG1, V domains shown)
VH: EVQLVESGGGLVQPGGSLRLSCSASGFTFSSYAMSWVRQVPGKGLVWISSISRGGTTYYADSVRGRFIISRDNAKNTLYLEMNNLRGEDTAVYYCARYDYDGYYAMDYWGQGTLVTVSS
VL: DIQMTQSPSSLSASVGDRVTITCKASPDINSYLNWYQQKPGKAPKVLIYRANRLVDGVPSRFSGSGSGTDYTLTISSLQPEDFATYYCLQYDEFPYTFGQGTKVEIK
notes: The name reads as an scFv with a (G4S)3 linker; The method text says variable regions were fused to mouse constant regions (chimeric mouse IgG1); VH/VL are tied by the numbers in the name

Kd [6]: 0.408 nM | Kd [7]: 0.284 nM | Kd [8]: 0.408 nM
B8: Hum_design_14_variant4 (antibody, V domains shown)
VH: EVQLVESGGGLVQPGGSLRLSCAASGFTFSSYAMSWVRQAPGKGLEWVASISRGGTTYYPDSVKGRFTISRDNVRNILYLQMSSLRSEDTAMYYCGRYDYDGYYAMDYWGQGTLVTVSS
VL: DIQMTQSPSSLSASVGDRVTITCKASPDINSYLNWYQQKPGKAPKLLIYRANRLVDGVPSRFSGSGSGTDYTLTISSLQPEDFATYYCLQYDEFPYTFGAGTKVEIK
notes: Variable regions fused to mouse constant regions (chimeric mouse IgG1 mAb) for SPR; also called hROR1 VH_14-4 / hROR1 VL_14-4

Continued, molecule first:

B1: Clone 04 (antibody, V domains shown)
VH: EVQLVESGGGLVQPGGSLRLSCAASGFTFSSYAMSWVRQAPGKGLEWVSAISRGGTTYYADSVKGRFTISRDNSKNTLYLQMNSLRAEDTAVYYCGRYDYDGYYAMDYWGQGTLVTVSS
VL: DIQMTQSPSSLSASVGDRVTITCQASPDINSYLNWYQQKPGKAPKLLIYRANNLETGVPSRFSGSGSGTDFTLTISSLQPEDIATYYCLQYDEFPYTFGQGTKLEIK
notes: Variable regions fused to mouse constant regions (chimeric mouse IgG1 mAb) for SPR; also called hROR1 VH_04 / hROR1 VL_04
Kd [5]: ~55 nM

B2: Clone 07 (antibody, V domains shown)
VH: EVQLVESGGGLVQPGGSLRLSCAASGFTFSSYAIIWVRQAPGKGLEWVARISRGGTTRYADSVKGRFTISADTSKETAYLQMNSLRAEDTAVYYCGRYDYDGYYAMDYWGQGTLVTVSS
VL: DIQMTQSPSSLSASVGDRVTITCRASPDINSYVAWYQQKPGKAPKLLIYRANFLESGVPSRFSGSRSGTDFTLTISSLQPEDFATYYCLQYDEFPYTFGQGTKVEIK
notes: Variable regions fused to mouse constant regions (chimeric mouse IgG1 mAb) for SPR; also called hROR1 VH_07 / hROR1 VL_07
Kd [5]: ~90 nM

B3: Hum ROR1_18VH_(G4S)3x_VL_04 (antibody, mouse IgG1, V domains shown)
VH: EVQLVESGGGLVQPGGSLRLSCSASGFTFSSYAMSWVRQVPGKGLVWISSISRGGTTYYADSVRGRFIISRDNAKNTLYLEMNNLRGEDTAVYYCARYDYDGYYAMDYWGQGTLVTVSS
VL: DIQMTQSPSSLSASVGDRVTITCQASPDINSYLNWYQQKPGKAPKLLIYRANNLETGVPSRFSGSGSGTDFTLTISSLQPEDIATYYCLQYDEFPYTFGQGTKLEIK
notes: as for B5
Kd [6]: 0.372 nM | Kd [7]: 0.271 nM | Kd [8]: 0.372 nM

B4: Hum ROR1_18VH_(G4S)3x_VL_07 (antibody, mouse IgG1, V domains shown)
VH: EVQLVESGGGLVQPGGSLRLSCSASGFTFSSYAMSWVRQVPGKGLVWISSISRGGTTYYADSVRGRFIISRDNAKNTLYLEMNNLRGEDTAVYYCARYDYDGYYAMDYWGQGTLVTVSS
VL: DIQMTQSPSSLSASVGDRVTITCRASPDINSYVAWYQQKPGKAPKLLIYRANFLESGVPSRFSGSRSGTDFTLTISSLQPEDFATYYCLQYDEFPYTFGQGTKVEIK
notes: as for B5
Kd [5]: 3.87 nM

B6: Hum ROR1_07VH_(G4S)3x_VL_18 (antibody, mouse IgG1, V domains shown)
VH: EVQLVESGGGLVQPGGSLRLSCAASGFTFSSYAIIWVRQAPGKGLEWVARISRGGTTRYADSVKGRFTISADTSKETAYLQMNSLRAEDTAVYYCGRYDYDGYYAMDYWGQGTLVTVSS
VL: DIQLTQSPDSLAVSLGERATINCKASPDINSYLSWYQQRPGQPPRLLIHRANRLVDGVPDRFSGSGFGTDFTLTITSLQAEDVAIYYCLQYDEFPYTFGQGTKLEIK
notes: as for B5
Kd [5]: 11.7 nM

B7: Hum ROR1_07VH_(G4S)3x_VL_05 (antibody, mouse IgG1, V domains shown)
VH: EVQLVESGGGLVQPGGSLRLSCAASGFTFSSYAIIWVRQAPGKGLEWVARISRGGTTRYADSVKGRFTISADTSKETAYLQMNSLRAEDTAVYYCGRYDYDGYYAMDYWGQGTLVTVSS
VL: DIQMTQSPSSLSASVGDRVTITCKASPDINSYLSWYQQKPGKAPKLLIYRANRLVDGVPSRFSGSGSGTDFTLTISSLQPEDIATYYCLQYDEFPYTFGQGTKLEIK
notes: as for B5
Kd [5]: 7.16 nM
